T1: Tbx2 T-box DNA-binding domain, TBX2(94-281) (UniProt Q60707 94-281)
T1 sequence: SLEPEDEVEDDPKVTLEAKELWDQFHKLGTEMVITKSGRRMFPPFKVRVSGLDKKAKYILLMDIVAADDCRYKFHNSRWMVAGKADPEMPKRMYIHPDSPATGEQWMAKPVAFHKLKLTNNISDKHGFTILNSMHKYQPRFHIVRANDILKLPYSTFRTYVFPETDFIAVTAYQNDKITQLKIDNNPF

B1: T-element (T-box) probe (dsDNA)
DNA 1: AATTTCACACCTAGGTGTGAAATT
DNA 2: AATTTCACACCTAGGTGTGAAATT
B2: E-box probe (dsDNA)
DNA 1: GAGACCACGTGTTGAC
DNA 2: GTCAACACGTGGTCTC

Molecular target: T1, Tbx2 T-box DNA-binding domain, …
Assay: fluorescence anisotropy; 50 mM HEPES/NaOH pH 7.3, 200 mM NaCl, 25 C, 10 min, 3.33 nM dsDNA probe
Settings: protein: recombinant, tags: N-terminal His tag removed by 3C protease (pETM14, NcoI/XhoI), blunt

Binder | Kd (label: fluorescein (printed at the 3' end), self-complementary palindrome, 2 copies) [nM] | Kd (label: fluorescein on S14 (printed at the 3' end), complement unlabeled) [nM]
B1 | ~602 | 
B2 |  | ~86

From publication PMC8653791, “TBX2 controls a proproliferative gene expression program in melanoma”
